Assay results published in patent US6472171.

Biological target: human α2(I) procollagen (human) (UniProt P08123)
Test: cell-based or functional assay

Chain of human α2(I) procollagen (human) (P08123 23-1366 limits assumed): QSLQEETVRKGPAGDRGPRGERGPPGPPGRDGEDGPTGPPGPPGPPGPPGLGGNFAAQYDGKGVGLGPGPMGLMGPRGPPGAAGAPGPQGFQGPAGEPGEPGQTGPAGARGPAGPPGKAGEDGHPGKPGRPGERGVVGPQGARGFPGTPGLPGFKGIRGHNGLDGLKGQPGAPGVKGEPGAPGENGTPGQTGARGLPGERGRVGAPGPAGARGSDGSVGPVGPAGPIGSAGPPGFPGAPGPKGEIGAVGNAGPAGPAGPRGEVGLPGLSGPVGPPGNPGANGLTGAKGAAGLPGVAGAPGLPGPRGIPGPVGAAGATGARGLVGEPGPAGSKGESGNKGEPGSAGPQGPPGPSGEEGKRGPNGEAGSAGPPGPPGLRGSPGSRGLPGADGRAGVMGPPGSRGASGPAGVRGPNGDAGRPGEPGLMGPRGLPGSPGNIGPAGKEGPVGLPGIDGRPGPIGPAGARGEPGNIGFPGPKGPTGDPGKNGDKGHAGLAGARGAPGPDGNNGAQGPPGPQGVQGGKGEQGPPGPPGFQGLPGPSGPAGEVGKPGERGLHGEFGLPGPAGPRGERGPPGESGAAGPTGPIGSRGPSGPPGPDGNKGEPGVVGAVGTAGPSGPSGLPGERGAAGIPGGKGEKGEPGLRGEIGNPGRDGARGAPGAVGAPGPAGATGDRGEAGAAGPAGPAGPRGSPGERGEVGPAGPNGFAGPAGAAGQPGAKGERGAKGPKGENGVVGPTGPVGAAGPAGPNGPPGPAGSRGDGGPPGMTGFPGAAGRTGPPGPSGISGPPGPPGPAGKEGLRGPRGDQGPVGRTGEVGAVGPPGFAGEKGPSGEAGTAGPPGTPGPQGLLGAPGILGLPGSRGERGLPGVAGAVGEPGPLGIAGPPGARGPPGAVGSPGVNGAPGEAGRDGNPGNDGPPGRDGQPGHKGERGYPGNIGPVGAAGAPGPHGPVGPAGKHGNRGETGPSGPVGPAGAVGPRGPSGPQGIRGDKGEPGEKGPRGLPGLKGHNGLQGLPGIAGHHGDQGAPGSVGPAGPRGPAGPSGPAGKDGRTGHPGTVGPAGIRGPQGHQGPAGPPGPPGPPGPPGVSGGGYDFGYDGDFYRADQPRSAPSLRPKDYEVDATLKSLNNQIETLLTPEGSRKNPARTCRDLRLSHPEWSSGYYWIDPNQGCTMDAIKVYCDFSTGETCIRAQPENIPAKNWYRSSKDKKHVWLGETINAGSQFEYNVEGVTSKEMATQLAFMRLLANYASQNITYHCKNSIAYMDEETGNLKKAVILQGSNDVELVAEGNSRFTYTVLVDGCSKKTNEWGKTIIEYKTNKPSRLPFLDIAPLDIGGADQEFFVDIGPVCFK

In the case of “human α1(I) procollagen (from UniProt P02452 23-1464)”, the resistance to pepsin digestion at increasing temperatures (SDS-PAGE) is reported as 38 ° C.
